Reference: IntAct's records for PubMed 15028672

Target: crx_bovin CRX (UniProt Q9XSK0)
Sequence (Q9XSK0 whole entry): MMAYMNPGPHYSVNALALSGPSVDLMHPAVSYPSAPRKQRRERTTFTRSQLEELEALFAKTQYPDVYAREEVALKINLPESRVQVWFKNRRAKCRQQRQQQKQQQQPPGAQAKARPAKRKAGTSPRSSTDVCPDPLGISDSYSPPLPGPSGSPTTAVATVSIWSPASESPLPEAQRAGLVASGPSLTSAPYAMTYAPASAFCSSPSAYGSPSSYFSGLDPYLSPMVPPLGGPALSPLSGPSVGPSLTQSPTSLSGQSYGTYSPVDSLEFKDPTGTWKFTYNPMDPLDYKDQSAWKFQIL

Chain of Retina and anterior neural fold homeobox protein 2 (Bos taurus (Bovine)), Q7YRX0 G137R (Q7YRX0 whole entry G137R): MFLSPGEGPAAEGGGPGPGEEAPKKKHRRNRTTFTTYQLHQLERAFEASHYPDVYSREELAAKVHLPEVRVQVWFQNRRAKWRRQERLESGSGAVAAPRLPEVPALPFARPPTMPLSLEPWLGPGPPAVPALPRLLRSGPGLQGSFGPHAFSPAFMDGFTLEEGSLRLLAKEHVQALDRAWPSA

- effect of a mutation on the interaction: decreasing interaction
Substance: Retina and anterior neural fold homeobox protein 2 (Bos taurus (Bovine)), Q7YRX0 G137R
